Results from patent US20230192824A1 (UNITED STATES OF AMERICA AS REPRESENTED BY THE SECRETARY OF …, published 2023).
Residue numbers refer to the chain shown, from its start.

Assays:
[1] = biological target: T1, CfaE, tip adhesin of CFA/I fimbriae on wild type ETEC strain H10407 (Escherichia coli (ETEC) strain H10407, UniProt P25734 23-360); assay: cell-based or functional assay
T1 sequence: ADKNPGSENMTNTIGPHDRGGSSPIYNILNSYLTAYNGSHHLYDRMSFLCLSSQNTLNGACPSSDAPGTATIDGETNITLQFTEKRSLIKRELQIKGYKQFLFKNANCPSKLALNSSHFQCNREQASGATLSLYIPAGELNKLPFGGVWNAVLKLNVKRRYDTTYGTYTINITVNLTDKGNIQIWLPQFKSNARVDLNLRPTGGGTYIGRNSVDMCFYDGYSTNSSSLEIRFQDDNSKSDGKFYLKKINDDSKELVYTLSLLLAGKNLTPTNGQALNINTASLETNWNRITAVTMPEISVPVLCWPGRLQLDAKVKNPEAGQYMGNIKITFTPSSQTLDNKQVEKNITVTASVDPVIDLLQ

[2] = biological target: CsfD, tip adhesin of CS4 fimbriae on wild type ETEC strain BANG10-SP (Escherichia coli (ETEC) strain BANG10-SP); assay: cell-based or functional assay
[3] = biological target: CsuD, tip adhesin of CS14 fimbriae on wild type ETEC strain WS3294A (Escherichia coli (ETEC) strain WS3294A); assay: cell-based or functional assay
[4] = biological target: T2, CsbD, tip adhesin of CS17 fimbriae on wild type ETEC strain WS6788A (Escherichia coli (ETEC) strain WS6788A); assay: cell-based or functional assay
T2 chain: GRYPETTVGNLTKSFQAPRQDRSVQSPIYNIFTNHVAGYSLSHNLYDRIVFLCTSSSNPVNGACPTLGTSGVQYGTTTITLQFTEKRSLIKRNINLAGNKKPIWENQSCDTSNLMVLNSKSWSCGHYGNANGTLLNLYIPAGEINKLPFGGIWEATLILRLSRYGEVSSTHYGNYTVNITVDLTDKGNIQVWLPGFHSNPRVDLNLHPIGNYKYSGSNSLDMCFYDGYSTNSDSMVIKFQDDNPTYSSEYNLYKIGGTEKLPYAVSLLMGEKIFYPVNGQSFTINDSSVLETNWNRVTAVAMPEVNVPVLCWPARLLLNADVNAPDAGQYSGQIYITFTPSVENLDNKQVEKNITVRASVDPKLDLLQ

[5] = biological target: T3, CsbD L85I/H144A, tip adhesin of CS17 fimbriae on wild type ETEC strain LSN02-013966/A (Escherichia coli (ETEC) strain …); assay: cell-based or functional assay
T3 chain: T2 chain with L67I, H126A

[6] = biological target: T4, CsbD L85I, tip adhesin of CS17 fimbriae on wild type ETEC strain WS4240A (Escherichia coli (ETEC) strain WS4240A); assay: cell-based or functional assay
T4 chain: T2 chain with L67I

[7] = biological target: CooD, tip adhesin of CS1 fimbriae on wild type ETEC strain WS1974A (Escherichia coli (ETEC) strain WS1974A); assay: cell-based or functional assay
[8] = biological target: T5, CotD, tip adhesin of CS2 fimbriae on wild type ETEC strain C91f (Escherichia coli (ETEC) strain C91f); assay: cell-based or functional assay
T5 chain: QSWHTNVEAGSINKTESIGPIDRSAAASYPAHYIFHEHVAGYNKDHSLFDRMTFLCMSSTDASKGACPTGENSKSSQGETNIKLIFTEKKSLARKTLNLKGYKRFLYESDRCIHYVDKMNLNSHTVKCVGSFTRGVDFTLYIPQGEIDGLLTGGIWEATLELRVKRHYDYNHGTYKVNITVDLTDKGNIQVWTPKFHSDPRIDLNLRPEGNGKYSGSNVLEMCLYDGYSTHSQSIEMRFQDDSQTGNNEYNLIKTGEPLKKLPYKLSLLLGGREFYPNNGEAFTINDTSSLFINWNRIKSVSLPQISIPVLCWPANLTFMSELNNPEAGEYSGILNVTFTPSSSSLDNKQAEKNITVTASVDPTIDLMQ

[9] = biological target: T6, dsc19CfaE6xhis (H10407), donor strand complemented recombinant CFA/I fimbrial tip adhesin CfaE (Escherichia coli (ETEC) strain H10407, UniProt P25734 23-360); assay: ELISA on coated adhesin
T6 construct: also called dscCfaE; primary CfaE
T6 sequence: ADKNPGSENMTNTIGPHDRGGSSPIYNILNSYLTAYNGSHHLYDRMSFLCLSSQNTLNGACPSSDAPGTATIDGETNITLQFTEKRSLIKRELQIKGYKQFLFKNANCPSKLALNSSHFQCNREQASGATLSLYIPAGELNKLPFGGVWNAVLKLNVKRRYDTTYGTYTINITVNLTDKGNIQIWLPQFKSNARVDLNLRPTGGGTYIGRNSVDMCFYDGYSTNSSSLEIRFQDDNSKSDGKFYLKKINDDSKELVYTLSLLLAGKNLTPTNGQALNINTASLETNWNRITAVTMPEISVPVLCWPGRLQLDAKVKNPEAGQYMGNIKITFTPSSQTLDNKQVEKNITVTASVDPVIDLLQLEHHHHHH

[10] = biological target: T7, dsc19CotD6xhis (C91f), donor strand complemented recombinant CS2 fimbrial tip adhesin CotD (Escherichia coli (ETEC) strain C91f); assay: ELISA on coated adhesin
T7 construct: also called dscCotD; CS2 adhesin
T7 chain: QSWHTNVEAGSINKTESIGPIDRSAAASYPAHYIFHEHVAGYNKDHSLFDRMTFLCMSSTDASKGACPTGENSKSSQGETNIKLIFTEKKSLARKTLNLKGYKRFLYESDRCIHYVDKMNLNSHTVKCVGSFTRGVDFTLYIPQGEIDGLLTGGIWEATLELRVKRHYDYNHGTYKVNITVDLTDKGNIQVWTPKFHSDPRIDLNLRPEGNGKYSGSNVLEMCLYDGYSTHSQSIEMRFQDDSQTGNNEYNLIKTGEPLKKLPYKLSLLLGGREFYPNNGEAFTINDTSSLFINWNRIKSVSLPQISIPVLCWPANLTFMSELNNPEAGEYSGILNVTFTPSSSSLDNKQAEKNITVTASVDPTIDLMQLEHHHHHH

[11] = biological target: T8, dsc19CsbD6xhis (WS6788A), donor strand complemented recombinant CS17 fimbrial tip adhesin CsbD (Escherichia coli (ETEC) strain WS6788A); assay: ELISA on coated adhesin
T8 construct: also called dscCsbD; primary CsbD
T8 chain: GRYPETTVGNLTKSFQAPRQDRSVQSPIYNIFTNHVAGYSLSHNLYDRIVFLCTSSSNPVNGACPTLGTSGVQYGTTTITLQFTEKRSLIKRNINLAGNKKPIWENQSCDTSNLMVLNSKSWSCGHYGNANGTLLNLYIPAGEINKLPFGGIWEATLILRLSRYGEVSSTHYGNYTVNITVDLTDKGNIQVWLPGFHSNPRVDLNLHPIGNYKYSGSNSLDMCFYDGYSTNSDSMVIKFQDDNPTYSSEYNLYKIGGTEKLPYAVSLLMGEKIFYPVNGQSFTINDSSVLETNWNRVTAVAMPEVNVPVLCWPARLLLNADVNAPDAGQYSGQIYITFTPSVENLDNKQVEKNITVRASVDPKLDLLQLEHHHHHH

B1: anti-CsbD mouse mAb P7C2 (antibody, V domains shown)
VH: EVKLEESGGGLVQPGGSMKLSCAASGFTFSDAWMDWVRQSPEKGLEWVGKIRSEINDHATYYAESVKGRFTISRDDSKSGVYLQMNNLRAEDTGIYYCARDGYYGAMDYWGQGTSVTVSS
VL: DVQITQSPSYLAASPGETITINCRSNKSISRYLAWYQEKPGKTNKLLIYSGSTLQSGIPSRFSGSGSNTDFTLTISSLEPEDFAMYYCQQHNEYPYTFGSGTKLEIK
B1 was tested, and the “MIC in HAI” value [1] was greater than 250 µg/mL, the “MIC in HAI” value [2] was greater than 250 µg/mL and the “MIC in HAI” value [3] was greater than 250 µg/mL. The “MIC in HAI” value [4] was 1 µg/mL, the “MIC in HAI” value [5] was 1 µg/mL and the “MIC in HAI” value [6] was 2 µg/mL. The “MIC in HAI” value [7] was 4 µg/mL, the “MIC in HAI” value [8] was greater than 250 µg/mL and the binding result [9] was “no binding (tested: mAb 2 ug/ml)”. B1: no binding (tested: mAb 2 ug/ml) [10].

B2: anti-CotD mouse mAb P6B8 (antibody, V domains shown)
VH: QVTLKESGPGILQPSQTLSLTCSFSGFSLSTSGMGVGWIRQPSGKGLEWLSHIWWDDEKRYNPALKSRLTISKDTSSNQVFLKIASVDTADTATYYCARIGDRSGHAGFVYWGQGTLVTVSA
VL: DIKMTQSPSSMYASLGERVTITCKASQDINSYLSWFQQKPGKSPKTLIYRANRLVDGVPSRFSGSGSGQDYSLTISSLEYEDMGTYYCLQYDEFPYTFGGGTKLEIK
In the case of B2, the “MIC in HAI” value [1] is reported as greater than 250 µg/mL, the “MIC in HAI” value [2] is reported as greater than 250 µg/mL and the “MIC in HAI” value [3] is reported as greater than 250 µg/mL. For the same binder, the “MIC in HAI” value [4] was greater than 250 µg/mL, the “MIC in HAI” value [5] was greater than 250 µg/mL and the “MIC in HAI” value [7] was greater than 250 µg/mL. For the same binder, the “MIC in HAI” value [8] was 3 µg/mL, the binding result [9] was “no binding (tested: mAb 2 ug/ml)” and the binding result [11] was “no binding (tested: mAb 2 ug/ml)”.

B3: anti-CfaE mouse mAb P5C7 (antibody, V domains shown)
VH: QIQLVQSGPELKKPGETVKISCKASGYTFTNYGMNWVKQAPGKGLKWMGWINTYTGEPTYTDDFKGRFAFSLETSASTAYLQINSLKTEDTATYFCARMEYGNYENAMDSWGQGTSVTVSS
VL: DTVMTQSHKFMSTSVGDRVSITCKASQDVSTAVVWYQQKPGQSPKLLIYSASYRYTGVPDRFTGSGSGTDFTFTISSVQAEDLAVYYCLQHFNIPRTFGGGTKLEIK
In the case of B3, the “MIC in HAI” value [1] is reported as 1.2 µg/mL, the “MIC in HAI” value [2] is reported as greater than 250 µg/mL and the “MIC in HAI” value [3] is reported as greater than 250 µg/mL. The “MIC in HAI” value [4] was 16 µg/mL, the “MIC in HAI” value [5] was greater than 250 µg/mL and the “MIC in HAI” value [6] was greater than 250 µg/mL. The “MIC in HAI” value [7] was greater than 250 µg/mL, the “MIC in HAI” value [8] was greater than 250 µg/mL and the binding result [10] was “no binding (tested: mAb 2 ug/ml)”.

B4: anti-CsbD mouse mAb P9A5 (antibody, V domains shown)
VH: EVQLQQFGAEVVKPGASVKISCKASGYTFTDYNIDWVKQSHGESLEWIGDISPNSEGTTYNQKFKGQATLTIDKSSTTAYMELRSLTSEDSAVYYCARGSGIWNGLDYWGQGTSVTVSS
VL: B3 VL with T2I, V34A, K45Q, A51S, T56V, L89H, F92Y, N93S, I94L, R96Y
notes: Isotype n.d
B4 was tested, and the “MIC in HAI” value [1] was greater than 250 µg/mL, the “MIC in HAI” value [2] was greater than 250 µg/mL and the “MIC in HAI” value [3] was greater than 250 µg/mL. For the same binder, the “MIC in HAI” value [4] was 4 µg/mL, the “MIC in HAI” value [5] was 3.9 µg/mL and the “MIC in HAI” value [7] was 4 µg/mL. The “MIC in HAI” value [8] was greater than 250 µg/mL, the binding result [9] was “no binding (tested: mAb 2 ug/ml)” and the binding result [10] was “no binding (tested: mAb 2 ug/ml)”.
